Data from patent US20170190782A1 (ABGENOMICS COOPERATIEF U A, published 2017).

T1: human P-Selectin Glycoprotein Ligand-1 (PSGL-1) (human, UniProt Q14242 42-412)
T1 sequence (looked up): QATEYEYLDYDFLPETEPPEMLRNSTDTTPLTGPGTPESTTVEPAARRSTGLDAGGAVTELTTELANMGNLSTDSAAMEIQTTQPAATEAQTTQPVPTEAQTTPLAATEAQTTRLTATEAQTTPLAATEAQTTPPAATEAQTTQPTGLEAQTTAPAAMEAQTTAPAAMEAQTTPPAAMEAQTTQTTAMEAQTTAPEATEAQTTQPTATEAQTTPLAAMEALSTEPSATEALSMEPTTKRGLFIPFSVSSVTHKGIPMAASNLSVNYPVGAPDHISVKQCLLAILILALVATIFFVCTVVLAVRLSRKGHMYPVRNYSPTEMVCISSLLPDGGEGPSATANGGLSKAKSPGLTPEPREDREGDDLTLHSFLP

T2: E. coli expressed hCD162 fragment 42-80 fused to human immunoglobulin gamma 1 heavy chain constant region (human, UniProt Q14242 42-80)
T2 construct: range 42-80; Expressed in E. coli from pET-32a; junction residues are not spelled out; not shown: human immunoglobulin gamma 1 heavy chain constant region
T2 chain (looked up): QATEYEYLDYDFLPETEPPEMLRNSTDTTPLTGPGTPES

T3: E. coli expressed hCD162 fragment 42-319 fused to human immunoglobulin gamma 1 heavy chain constant region (human, UniProt Q14242 42-319)
T3 construct: Expressed in E. coli from pET-32a; junction residues are not spelled out; not shown: human immunoglobulin gamma 1 heavy chain constant region
T3 sequence (looked up): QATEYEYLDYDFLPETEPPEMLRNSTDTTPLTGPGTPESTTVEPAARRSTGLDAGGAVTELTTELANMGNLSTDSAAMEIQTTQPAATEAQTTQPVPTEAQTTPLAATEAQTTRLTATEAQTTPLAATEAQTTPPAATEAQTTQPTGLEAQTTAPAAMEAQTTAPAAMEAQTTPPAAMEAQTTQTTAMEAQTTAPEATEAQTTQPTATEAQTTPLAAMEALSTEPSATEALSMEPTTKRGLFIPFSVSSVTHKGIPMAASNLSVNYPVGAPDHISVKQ

T4: E. coli expressed hCD162 fragment 42-119 fused to human immunoglobulin gamma 1 heavy chain constant region (human, UniProt Q14242 42-119)
T4 construct: range 42-119; Expressed in E. coli BL21(DE3) from pET-32a; NdeI/BglII cloning adds a start Met and junction residues that are not spelled out; also called fusion protein covering residues 42-119; not shown: human immunoglobulin gamma 1 heavy chain constant region
T4 sequence (looked up): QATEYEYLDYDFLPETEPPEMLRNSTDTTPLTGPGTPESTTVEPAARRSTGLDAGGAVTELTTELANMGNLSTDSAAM


Assays:
[1] = biological target: human P-Selectin Glycoprotein Ligand-1 (PSGL-1) (human) (UniProt Q14242); assay: FACS, inhibition of recombinant human P-selectin binding to activated T cells; competitor P-selectin
[2] = biological target: T1, human P-Selectin Glycoprotein Ligand-1 …; assay: cell-based or functional assay
[3] = biological target: T2, E. coli expressed hCD162 fragment 42-80 …; assay: sandwich ELISA, fusion protein captured by goat anti-human IgG, antibody at 2 µg/ml
Experimental: (§1) A sandwich ELISA was conducted to study the interaction between the hCD162 fragments and each of 15A7, 9F9, and 43B6. 96-well microtiter plates were coated with goat anti-human IgG (Southern Biotechnology, Cat. No. 2040-01) antibody (2 μg/ml, 50 μl/well) overnight at 4° C. Plates were blocked by incubation with 0.25% of BSA in PBS (150 μl/well) for 1 hour at 37° C. The blocked plates were then incubated with fusion proteins containing various fragments of human CD162 (2 μg/ml) for 2 hours at room temperature. After washing 4 times with PBS containing 0.05% of Tween 20 (PBST), the plates were incubated with testing antibodies (2 μg/ml) for 1.5 hours at room temperature.
(§2) After incubation, the plates were washed 4 times with PBST. 50 μl of 1 to 3000 diluted goat anti-mouse IgG conjugated with alkaline phosphatase (Southern Biotechnology, Cat. No. 1031-04) was then added to each well and the plates were incubated for 1 hour at 37° C. Enzyme reaction was carried out by adding 50 μl of an alkaline phosphatase substrate solution (1 alkaline phosphatase substrate tablet dissolved in 5 ml of substrate buffer containing 0.012 M of Na₂CO₃, 0.16 M of NaHCO₃ and 1 mM of MgCl₂ at pH 8.6), and absorbance at 405 nm was determined.

[4] = biological target: T3, E. coli expressed hCD162 fragment …; assay: as above
Experimental: as §1, §2

[5] = biological target: T4, E. coli expressed hCD162 fragment …; assay: as above
Experimental: as §1, §2

[6] = biological target: T1, human P-Selectin Glycoprotein Ligand-1 …; assay: FACS, inhibition of recombinant human P-selectin binding to activated T cells; competitor P-selectin
Experimental: (§3) Human PBMC were activated with 1% PHA for 2 days and maintained in IL-2-containing medium for 3 days. The cells were incubated with titrated 9F9, 15A7, 43B6, KPL-1 (an PSGL-1 antagonist), or a control antibody (9E10) for 30 minutes, followed by the addition of recombinant human P-selectin (1.25 μg/ml). Binding of P-selectin to activated T cells was measured by anti-P-selectin-FITC analyzed on FACS. Consistent with previous reports, KPL-1 almost completely abolished P-selectin's binding to activate T cells at a low concentration (0.31 μg/ml). 43B6 blocked binding of P-selectin to activated T cells as effectively as KPL-1 did, whereas a higher concentration of 9F9 was required to achieve the same effect. Indeed, 0.08 μg/ml KPL or 43B6 was needed to abolish 50% of the binding. In contrast, 5 μg/ml 9F9 was required.

[7] = biological target: T2, E. coli expressed hCD162 fragment 42-80 …; assay: sandwich ELISA, fusion protein captured by goat anti-human IgG
Experimental: as §1, §2

[8] = biological target: T4, E. coli expressed hCD162 fragment …; assay: as above
Experimental: as §1, §2

[9] = biological target: T1, human P-Selectin Glycoprotein Ligand-1 …; assay: FACS competition against Biotin-labeled mouse 15A7 on CD162-expressing Sp2/0 cells
Experimental: (§4) Sp2/0 transfectants stably expressing human CD162 were used as source of human CD162 antigen. Biotin-labeled mouse 15A7 was used as tracer. Increasing amounts of competitor antibodies (mouse, chimeric, or humanized 15A7) were mixed with 35 ng of Biotin-labeled mouse 15A7 and incubated with 1×10⁵ CD162-expressing Sp2/0 cells for 1.5 hours at 4° C. with constant shaking. After washing, secondary antibody, Streptavidin-PE (Becton Dickinson Immunocytometry System Inc. Cat. No. 349023) was added to the mixture. After incubating for 45 minutes at 4° C., the cells were washed again, resuspended in 300 μl of PBS-1% of FBS, and subjected to FACS analysis.

[10] = biological target: T1, human P-Selectin Glycoprotein Ligand-1 …; assay: derived from FACS competition against Biotin-labeled mouse 15A7 on CD162-expressing Sp2/0 cells
Experimental: as §4

[11] = biological target: T1, human P-Selectin Glycoprotein Ligand-1 …; assay: FACS, inhibition of recombinant human P-selectin binding to activated T cells; competitor P-selectin; the antibody binds PSGL-1 but does not block
Experimental: as §3

Row | Molecule | Percentage of apoptotic T cells (annexin V positive, CD3 gated), Day 0 non-activated human T cells [2] | Percentage of apoptotic T cells (annexin V positive, CD3 gated), Day 7 in vitro activated human T cells [2] | binding result [3] | binding result [4] | binding result [5] | IC50 [6] | IC50 [9] | Ka [10] | also measured
1 | KPL-1 anti-hCD162 antibody (PharMingen) |  |  |  |  |  |  |  |  | IC50 [1]: 0.08 µg/mL; concentration that almost completely abolished P-selectin's binding [1]: 0.31 µg/mL
2 | mouse 9F9 antibody (antibody, V domains shown, Mouse IgG1 from hybridoma m128-9F9; also called m128-9F9) VL: DVLMTQTPLSLPVSLGDQASISCRSSQSIVNSNGNTYLEWYLQKPGQSPKLLIYKVSNRFSGVPDRFSGSGSGTDFTLKISRVEAEDLGVYYCFQGSHVPWTFGGGTKLEIK VH: EVQLVETGGGLVQPKGSLKLSCAASGFTFNTNAMNWVRQAPGKGLEWVARIRSKSNNYATYYADSVKDRFTISRDDTQSMIYLQMNNLKTEDTGMYYCVRGGSYWYFDVWGAGTTVTVSS | 5.82% | 28.7% | binds | binds | binds | 5 µg/mL |  |  | 
3 | chimeric 15A7 antibody (antibody, V domains shown, Mouse 15A7 VL on the human light chain constant region (pVk) and mouse 15A7 VH on the human IgG1, IgG2 or IgG4 heavy chain constant region (pVg1, pVg2, pVg4)) VH: DVQLVESGGGLVQPGGSRKLSCAASGFTFSSFGMHWVRQAPEKGLEWVAYINGGSSTIFYANAVKGRFTISRDNPKNTLFLQMTILRSEDTAIYYCGRYASYGGGAMDYWGQGTSVTVSS VL: DILMTQTPLSLPVSLGDQASISCRSSQSIVHNDGNTYFEWYLQKPGQSPKLLIYKVSNRFSGVPDRFSGSGSGTHFTLNISRVEAEDLGIYYCFQGSYVPLTFGAGTKLELK |  |  |  |  |  |  | ~5.71 µg/mL | 2.62e+07 M⁻¹ | 
4 | humanized 15A7 antibody (antibody, V domains shown, V regions were inserted into the pVk and pVg4 vectors (human kappa light chain constant region, human IgG4 heavy chain constant region); also called Hu15A7) VH: EVQLVESGGGLVQPGGSLRLSCAASGFTFSSFGMHWVRQAPGKGLEWVAYINGGSSTIFYANAVKGRFTISRDNAKNTLYLQMNSLRAEDTAVYYCARYASYGGGAMDYWGQGTLVTVSS VL: DIQMTQSPSSLSASVGDRVTITCRSSQSIVHNDGNTYFEWYQQKPGKAPKLLIYKVSNRFSGVPSRFSGSGSGTHFTLTISSLQPEDFATYYCFQGSYVPLTFGQGTKVEIK |  |  |  |  |  |  | ~4.51 µg/mL | 3.33e+07 M⁻¹ | 

Further lines, with some results ahead:

Row | Percentage of apoptotic T cells (annexin V positive, CD3 gated), Day 0 non-activated human T cells [2] | Percentage of apoptotic T cells (annexin V positive, CD3 gated), Day 7 in vitro activated human T cells [2] | binding result [3] | binding result [4] | binding result [5] | IC50 [6] | IC50 [9] | Ka [10] | Molecule | also measured
5 | 5.23% | 51.7% |  | binds |  |  | 3.72 µg/mL | 4.03e+07 M⁻¹ | mouse 15A7 antibody (antibody, V domains shown, Mouse IgG1 from hybridoma m152-15A7; also called m15A7; m152-15A7) VL: DILMTQTPLSLPVSLGDQASISCRSSQSIVHNDGNTYFEWYLQKPGQSPKLLIYKVSNRFSGVPDRFSGSGSGTHFTLNISRVEAEDLGIYYCFQGSYVPLTFGAGTKLELK VH: DVQLVESGGGLVQPGGSRKLSCAASGFTFSSFGMHWVRQAPEKGLEWVAYINGGSSTIFYANAVKGRFTISRDNPKNTLFLQMTILRSEDTAIYYCGRYASYGGGAMDYWGQGTSVTVSS | binding result [7]: no binding (tested: 2 µg/ml); binding result [8]: no binding (tested: 2 µg/ml); IC50 [11]: > 20 µg/mL
6 | 6.57% | 49.4% | binds | binds | binds | 0.08 µg/mL |  |  | mouse 43B6 antibody (antibody, V domains shown, Mouse IgG1 from hybridoma m166-43B6; also called m166-43B6; M166-43136) VL: ENVLTQSPAIMSASPGEKVTMTCRASSTVNSTYLHWFQQKSGASPKLWIYGSSNLASGVPARFSGSGSGTSYSLTISSVEAEDAATYYCQQYSGYPLTFGAGTTLELK VH: EVQLQQSGPDLVKPGALVKISCKASGYSFTAYYIHWVKQSHGKSLEWIGRVNPNTGGTSYNPKFKGKAILNVDKSSSTAYMELRSLTSEDSAVYYCARSGSPYYRYDDWGQGTTLTVSS | 
